Measurements taken from patent US20090068103, “APTAMERS LABELED WITH 68GA” (published 2009).

target: Tenascin-C (TN-C) (Homo sapiens, UniProt P24821 P24821:23-2201); test: competition; filter competition vs 1 nM 99mTc-TTA1-MAG2, 2 nM TN-C; TBSMC pH 7.4, 1 mM CaCl2, 1 mM MgCl2, 37 C; conditions: tags: none stated; chain copies: 6
Description: A competition filter binding assay was carried out in order to determine binding constants (EC₅₀). Samples of 2 nM human TN-C were incubated with 1 nM ^99mTc-TTA1-MAG₂ in TBSMC buffer (20 mM Tris, pH 7.4; 137 mM NaCl; 1 mM CaCl₂; 1 mM MgCl₂) and the binding competed with varying concentrations of unlabeled aptamer (see pipetting scheme in FIG. 9.1). Incubation was carried out at 37° C. for 15 min. Subsequently, the solutions were pipetted on a Minifold Device equipped with a supported nitrocellulose membrane and Whatman filter paper and were washed with buffer using vacuum. Residual radioactivity on the filter due to tenascin-C bound labeled aptamer was quantified using a Phosphorimager. EC₅₀ values were calculated using GraphPadPrism 3.02 (San Diego, Calif., USA) plotting one-side competition non-linear regression curves.

Sequence of Tenascin-C (TN-C) (P24821 23-2201, one chain of several): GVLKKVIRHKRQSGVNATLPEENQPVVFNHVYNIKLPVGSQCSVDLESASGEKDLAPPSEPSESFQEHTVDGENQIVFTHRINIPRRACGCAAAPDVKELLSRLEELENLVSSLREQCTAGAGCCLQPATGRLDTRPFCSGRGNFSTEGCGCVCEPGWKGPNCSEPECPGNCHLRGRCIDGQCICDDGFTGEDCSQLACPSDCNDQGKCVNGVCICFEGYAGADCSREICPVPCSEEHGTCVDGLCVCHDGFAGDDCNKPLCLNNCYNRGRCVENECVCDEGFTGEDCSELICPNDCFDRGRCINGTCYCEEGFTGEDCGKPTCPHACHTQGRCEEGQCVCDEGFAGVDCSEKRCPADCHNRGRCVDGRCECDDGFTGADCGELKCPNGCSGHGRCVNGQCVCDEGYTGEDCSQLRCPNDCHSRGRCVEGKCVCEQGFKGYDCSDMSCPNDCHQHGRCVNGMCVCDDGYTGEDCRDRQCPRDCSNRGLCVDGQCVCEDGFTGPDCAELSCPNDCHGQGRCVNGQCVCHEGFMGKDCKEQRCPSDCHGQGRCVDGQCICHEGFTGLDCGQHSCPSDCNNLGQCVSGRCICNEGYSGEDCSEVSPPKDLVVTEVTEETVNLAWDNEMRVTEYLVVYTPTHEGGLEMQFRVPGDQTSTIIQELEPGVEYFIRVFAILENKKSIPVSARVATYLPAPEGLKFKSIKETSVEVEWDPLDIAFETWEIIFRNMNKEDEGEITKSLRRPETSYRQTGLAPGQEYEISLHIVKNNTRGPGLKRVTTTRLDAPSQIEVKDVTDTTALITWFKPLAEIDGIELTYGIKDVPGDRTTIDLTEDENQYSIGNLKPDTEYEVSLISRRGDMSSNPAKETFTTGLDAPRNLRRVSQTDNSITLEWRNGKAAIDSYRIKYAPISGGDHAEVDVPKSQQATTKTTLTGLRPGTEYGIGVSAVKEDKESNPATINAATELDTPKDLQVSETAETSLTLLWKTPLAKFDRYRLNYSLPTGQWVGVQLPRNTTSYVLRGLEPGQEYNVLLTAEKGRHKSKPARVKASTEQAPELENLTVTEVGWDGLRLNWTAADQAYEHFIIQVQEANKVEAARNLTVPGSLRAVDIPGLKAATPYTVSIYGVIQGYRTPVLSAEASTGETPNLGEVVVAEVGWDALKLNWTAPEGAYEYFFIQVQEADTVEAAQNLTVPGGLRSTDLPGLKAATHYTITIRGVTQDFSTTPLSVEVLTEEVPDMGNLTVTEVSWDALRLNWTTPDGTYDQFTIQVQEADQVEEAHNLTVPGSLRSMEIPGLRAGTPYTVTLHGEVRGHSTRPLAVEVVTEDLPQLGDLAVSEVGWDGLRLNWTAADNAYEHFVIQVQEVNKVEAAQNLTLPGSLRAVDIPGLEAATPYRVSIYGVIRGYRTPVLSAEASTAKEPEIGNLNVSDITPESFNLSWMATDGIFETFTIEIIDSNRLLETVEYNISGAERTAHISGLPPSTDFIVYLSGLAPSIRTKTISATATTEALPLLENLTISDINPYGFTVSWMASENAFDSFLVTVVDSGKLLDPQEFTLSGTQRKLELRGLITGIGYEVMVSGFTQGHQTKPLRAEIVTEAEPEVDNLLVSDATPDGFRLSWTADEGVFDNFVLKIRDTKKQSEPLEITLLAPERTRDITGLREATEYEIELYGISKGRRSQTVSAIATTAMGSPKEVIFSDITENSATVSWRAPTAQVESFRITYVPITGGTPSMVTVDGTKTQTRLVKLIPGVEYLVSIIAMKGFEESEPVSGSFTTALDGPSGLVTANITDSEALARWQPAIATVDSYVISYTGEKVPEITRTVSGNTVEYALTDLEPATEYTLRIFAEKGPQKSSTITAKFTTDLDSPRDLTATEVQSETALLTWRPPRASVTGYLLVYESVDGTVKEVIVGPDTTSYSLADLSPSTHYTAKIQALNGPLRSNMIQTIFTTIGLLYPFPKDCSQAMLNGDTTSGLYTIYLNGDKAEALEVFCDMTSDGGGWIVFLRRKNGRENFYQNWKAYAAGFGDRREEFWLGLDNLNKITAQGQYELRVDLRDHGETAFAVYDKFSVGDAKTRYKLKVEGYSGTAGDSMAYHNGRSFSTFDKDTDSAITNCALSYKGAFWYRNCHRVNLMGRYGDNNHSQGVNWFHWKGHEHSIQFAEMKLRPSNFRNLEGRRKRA

Row | Binder | EC50 [nM]
1 | TAGGGAGGACGCGUCGCCGUAAUGGAUGUUUUGCUCCCUG (ssRNA, 5'-(aminomodifier C2 dT)-mA mGmGmG mAmGG mAfCmG-(CH2CH2O)6-fCGfU fCGfC fCGfU mAmAfU mGmGmA fUmGfU fUfUfU mGfCfU fCfCfC fUmG (m=2'-OMe, f=2'-F); 3'-3'-T cap) [TTA5] | 39
2 | GGGAGGACGCGUCGCCGUAAUGGAUGUUUUGCUCCC (ssRNA, mGmGmG mAmGG mAfCmG-(CH2CH2O)6-fCGfU fCGfC fCGfU mAmAfU mGmGmA fUmGfU fUfUfU mGfCfU fC(C6-NH2)CfC (m=2'-OMe, f=2'-F); 3'-3'-T cap) [TTA4] | 20
3 | GGGAGGACGCGUCGCCGUAAUGGAUGUUUUGCUCCC (ssRNA, mGmGmG mAmGmG mAfCrG-(CH2OCH2)6-fCGfU fCGfC fCGfU mAmAfU mGmGmA fUmGfU fUfUfU mGmCmU mCmCmC-(CH2)6NH2-3' (m=2'-OMe, f=2'-F, r=ribo)) [TTA8] | 14
4 | GGGAGGACGCGUCGCCGUAAUGGAUGUUUUGCUCCC (ssRNA, LGLGLG LALGmG mAfCrG-(CH2OCH2)6-fCGfU fCGfC fCGfU mAmAfU mGmGmA fUmGfU fUfUfU mGLCLU LCLCLC-(CH2)6NH2-3' (m=2'-OMe, f=2'-F, L prefix as printed, LNA inferred, r=ribo)) [TTA7] | 2
5 | GGGAGGACGCGUCGCCGUAAUGGAUGUUUUGCUCCCUG (ssRNA, 5'-NH2-C6; mGmGmG mAmGG mAfCmG-(CH2CH2O)6-fCGfU fCGfC fCGfU mAmAfU mGmGmA fUmGfU fUfUfU mGfCfU fCfCfC UG (m=2'-OMe, f=2'-F); 3'-3'-T cap) [TTA3] | 19
6 | GGGAGGACGCGUCGCCGUAAUGGAUGUUUUGCUCCCUG (ssRNA, 5'-NH2-C6-O-SPO-O (PS linkage); mGmGmG mAmGG mAfCmG-(CH2CH2O)6-fCGfU fCGfC fCGfU mAmAfU mGmGmA fUmGfU fUfUfU mGfCfU fCfCfC fUmG (m=2'-OMe, f=2'-F); 3'-3'-T cap) [TTA6] | 14
